27 sequences from the domain aggregation screens of Martell et al. (2025) can be followed below.

The data set in a line: soluble fraction after stress (log2 fold change); higher = more stays soluble; pooled small domains, quantitative proteomics. To be noted: stress: 50 degC. A digest of the protocol: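 Custom libraries of small protein domains were pooled and measured in a high-throughput format, with quantitative proteomics as the read-out. Each library was stressed at 50°C. The value is the log2 fold change in the amount of each protein that stays soluble after stress, used as a measure of aggregation propensity; higher values mean more of the protein stays soluble.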
For the sequence “HMAADWTAIKLAYVNGGMSMRELAQRFHVGAAGLMKRAAKEGWEAERQQNSAKVSNAAQMLIN”, the “soluble fraction (log2)” value is 0.33.

For the sequence “HMAAEEAFPGGRIVQNAEENRLQILFDEIPGEDVRAALKSHGFRWSPKNKAWQRQLTQNAEYDARRILGI”, the “soluble fraction (log2)” value is -0.00473.

Turning to “HMAAEELTVDKILTAQSFGVTAEAILAKVNDPANTVATLTQADVDRLRAAGVPEGVVTALQARAPQ”, the “soluble fraction (log2)” value was determined as 0.0975.

In the case of “HMAAENAVGARVKALREAMDLSLRDLSERSGVSPTMLSQVERGSTSPTLAVAEKIAAGLDLSLSQLLRL”, the “soluble fraction (log2)” value was -0.0179.

For “HMAAGADEATTVPNVSGDTLNQAIKSLKAEGLGYMLSGAGARVRDQMPEPGAEMTKGSVVMLYMDGDAEVD”, the “soluble fraction (log2)” value is -0.0304.

As for “HMAAGVESLTEKEFAVASLVGGGASNREIAERLAMSERTVKSHLSSIFRKMDVRDRVQLALAMND”, the “soluble fraction (log2)” value was 0.00815.

For “HMAAIPATVDEETYRRLKPMLKQYGILYHEFKPLRSGKKGAVELIFMEKDLALVQELLSRLKKEK”, the “soluble fraction (log2)” value is 0.422.

As for “HMAAIPEQVSEEVVSAVKASGIDPGKVTKEQWTSLLKGRRTALGSSSGKLFMLSKAPVGYTLKAVNA”, the “soluble fraction (log2)” value stood at 0.333.

Take “HMAAMDMFVKLDALDAELTEQLKALPAEPDDARVERGLALLTDYDHRIKALLTEIFGGENDFDKVL”: the “soluble fraction (log2)” value was -2.4.

On to “HMAAPPPLSDYRNMQEAEHIRNILLQHHGNVRRAAAALELSRPYLYQKMKQLGINIAELRELSLSHSS”, for which the “soluble fraction (log2)” value was -0.559.

As to “HMAASEAESIRILLSEGVDRVHLRKPQSAEADMRRLIEALPPELYPRLTLQDHLHLAGEYGT”, the “soluble fraction (log2)” value turned out to be 0.0186.

“HMAATGPLTPREAEIARLAAGHLSNRQIAEQLVVSERTVENHLYRIFIKLAVTGRDDLAAALAATEQ”: the “soluble fraction (log2)” value is -0.689.

Regarding “HMAATNVKVPDLKGWDYNNAVGKYGDKLSFVKKSIYSDSVSKGIIIYNARVGETVAQGTTIEVTVSLGPKG”, the “soluble fraction (log2)” value was -0.205.

On to “HMAAVPYQVKITTEDLRIRTGPGTNHDFTGQYTGKGVFTIVEESEGSGAPIWGRLKSGAGWIGIDPSWSVR”, for which the “soluble fraction (log2)” value was -0.706.

Turning to “HMADAGQTTAATELKQAPNAGSATISQLSAGQTLQIGTRQGAWYQVKTPQGEGWVRMLSVRLQ”, the “soluble fraction (log2)” value is 0.0186.

As for “HMADEGFRQTVLAVLARWESKIHHGQYNALKAKVMNGNWSSFVKQVVKFQGKFIHPDAAKELLGLFG”, the “soluble fraction (log2)” value is -0.0749.

On to “HMADFIKEIKTNNPRQLLKSILSSFMPRALILELEMLLWNDLKSKPIGEWSNTQIENVGKLLNNWILKPAA”, for which the “soluble fraction (log2)” value stood at 0.0698.

On to “HMADIWDLLRSEYKLTETDVRMLTDMLPDELMNDFRSEVLALRDRMNRYKVNNPKSYVVTSLKNFIIQHTP”, for which the “soluble fraction (log2)” value was -0.263.

Regarding “HMADKNIIGVLSAADNLGKVRITTANGEKYIITVPDGLSDIVKTYWEEEVSVKYVIEKRRKILVDIDG”, the “soluble fraction (log2)” value was -1.67.

Regarding “HMADLIIMSSDATEKQVDKVINKIKNMGFNVNISKGTEKTIIGIIGDTRGISDEVFKIMPGVIEVISILRD”, the “soluble fraction (log2)” value was -0.39.

Turning to “HMADLIVFTTDANKEKKVDDETYFYLDVVSDGKLVENYELTEKQYNYIKDLGVGEYVYNEKGKLDSYTAFT”, the “soluble fraction (log2)” value is -0.00687.

Consider “HMADPLQLLEQQRQDYIQAVTEYLNSHPNAKPIWDVMKKDAGYGDMKLTDIPLGILKKLYITLT”, for which the “soluble fraction (log2)” value was -0.356.

Consider “HMADRVFGHIPGVAVGSIFPDRRSLSQTGVHRPTQAGISGNKTDGADSIVVSGGYRDDRDYGDLIIYTG”, for which the “soluble fraction (log2)” value is -0.000463.

With “HMADTFVMPDLVYRRYEPVRGYFERGGFHMGAVKFEPYEGISDGTILRQNPLPGHPLRRRDVISLVVAAS”, the “soluble fraction (log2)” value is -2.23.

In the case of “HMADYYETLGVERTASEEDIKRAYRKMSRKYHPDIAGPEFEEKFKEVNTAYEVLSDPDKRRMYDAGVDPND”, the “soluble fraction (log2)” value worked out at 0.0489.

Turning to “HMADYYSILGLTKNATDIEIKSAFRKLAKIYHPDKNPDPNARVLFEHILKAYDTLINPHSRRRYDSL”, the “soluble fraction (log2)” value was -0.349.

For “HMAEELELFHRLISVTGVGPKGALGFLSQLKPQEIILAILSDDVKTLSKAPGVGRKTAQRVILELKDKF”, the “soluble fraction (log2)” value was -1.14.
